Experiment: yeast display, Sf9 membrane polyspecificity reagent, FACS + sequencing; frameworks hold sequencing errors
Procedure, shortened: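 Genes from sorted yeast were amplified by colony PCR, read by MiSeq 2 × 250 sequencing and filtered on CDR length. These cells carried a synthetic nanobody library in Saccharomyces cerevisiae BJ5465 and were sorted by FACS into low and high (top ~1%) gates on anti-HA and streptavidin fluorescence. Polyreactivity is labelled according to the gate of origin.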

| Sequence | polyreactivity (PSR sort gate) |
| --- | --- |
| QVQLVESGGGLVQAGGSLRLSCAASGRIFYRNAMGRYRQAPGKERELVAAISSSGGRTYYADSVKGRFTISRDNAKITVYFQMNSLKPEDTAVYYCNRAYYLDSGYDSWGQGTQVTVSS | high polyreactivity |
| QVQLVESGGGLVQAGGSLRLSCAASGDTFTSYAMGWYRQAPGKERELVAAISRRGGSTYYADSVKGRFTISRDNAKNTVYLQMNSLKPEDTAVYYCAAKSYSYTEFDYWGQGTQVTVSS | high polyreactivity |
| QVQLVESGGGLVQAGGSLRLSSAASGRIFRGNEMGWYRQAPGKEREFVAAISWGGGSTYYADSVKGRFTISRDNAKKTVYLQMNSLKPEDTAVYYCAAGSPYAYNYWGQGTQVTVSS | high polyreactivity |
| QVQLVESGGGLLQAGGSLRLSSAASGGTFPKYTKGWYRPAPGKEWELVAAITSRGGTYYADSVKGRFTISRDNAKNSVYLQMNSLKPEDTAVYYCAAEYSYSSYLWYDYWGQGTQVTVSS | high polyreactivity |
| QVQLVESGGGLVQAGGSLRLTCAASGFIFRYYAMGWYRQAPGKERELVAAISRSGGSTYYADSVKGRFTISRDNAKNTVYLQMNSLKPEDTAVYYCAAKDGRSYYDRTPMDYWGQGTQVTVSS | low polyreactivity |
| QVQLVESGGGLVQAGGSLRLSCAASGSTFYSYAMGWYRQAPGKERELVAAISSGGSTYYADSVKGRFTISRDNAKNTGYLQMNSLKPEDTAVYYCAAKRRAKTGYRYDYWGQGTQVTVSS | high polyreactivity |
| QVQLVETGGGLVQAGGSLRLSCAASGRTFLYYAMGWYRPEPGKERELDAAIRRGSSTYYADSVKGRFTISRDKAKNTVYLQMNSLKPEDTAVYYCAARGRYRIGQGRYGKRYDYWGQGTQVTVSS | high polyreactivity |
| QVQLQESAGGLVQAGGSLRLRCSASGYISCDASMGWYRQAPGKERELAASITKGSSTNYADSVKGRFTIRDNAKNTVYLQMNSLKPEDTSVCYCAVTYPYWGDYTYWGQGTQVTVSS | low polyreactivity |
| QVQLVESGGGLVQAGGSLRLSCAASGRIFVVYAMGWYRQEPGKERELVAAITGGGRTNYADSVKGRFTISRDNAKNTVYLHMNSLKPEATAVYYCAAGTRSDARRYYYWGQGTQVTVSS | low polyreactivity |
| QVQLQESGGGLVQAGGSLRLSCAASGSIFHLHIKCWYRQAPGKERESVAAISYGTSTYYADRVKGRFTICRDNAKNTVYLQMNSPKPDDTAVYYCAALFLVSKHHHYWGEGTQVTVSS | low polyreactivity |
| QVQLVESGGGLVQAGGSLRLSCAASGSIFYQNALGWYRQAPGKETELVAAMSRSGGSTYYADSVKGRFTISRDNAKNTVYLQMNSLKPEDTAVYYCAARISRQRSYSRDYWGQGTQVTVSS | high polyreactivity |
| QVQLVESGGGLVQAGGSLRLSCAASGFTFGSNAMGWYRQAPGKEREFVAAITYSGGGTYADSVKGRFTISRDNAKNTVDLQMNSLKPEDTAVYYCATDAYRWHYWNFGFGYWGQGTQVTVSS | high polyreactivity |
| QEQLQESGGGLVQAGCSLRLSCAANGYIFSVEDMGRYCLAPGKEREFVATINYDTSTYYADSVKGSFTISRDNAKKTVYLQMNSLKPEDTEVYYCEAYFYAYRSPGYWGQGTQVTVSS | high polyreactivity |
| QVQLVESGGGLVQAGGSLRLSCAASGSTFTVYAMGWYRQAPGKERELVAAISWSGGSTYYADSVKGRFTISRDNAKNTVYLQMNSLKPEDTAVYYCAVVIYWRTGEYDYWGQGTQVTVSS | low polyreactivity |
| QVQLVESGGGLVQAGGSLPLSCAASGSTFGSYAMGWYRQAPGKERELVAAISYSGGSTYYADSVKGRFTISRDNEKNTVFLQMNSLKPEDTAVYYCATVRKYRAMDYWGQGTQVSVSS | high polyreactivity |
| QVQLVESGGGLVQAGGSLRLSCAASGSIFWNNDMGWYRPAPGKERELVAGISGGSTNYADSVKGRFTISRDNAKNTVYLQMNSLKPEDTAVYYCATERQWESRLEAYDYWGQGTQVTVSS | low polyreactivity |

| Sequence | polyreactivity (PSR sort gate) |
| --- | --- |
| QVQLVESGGGLVQAGGSLRLSCAASGYTFGSYAMGWYRQAPGKERELVAAISKRGGRTYYADSVKGRFTISRDNAKNTVYLQMNSLKPEDTAVYYCAKDYPKYDYWGQGTQVTVSS | high polyreactivity |
| QVQLVESGGGLVQAGGSLRLSCAASGNIFAVYAMGWYRQAPGKERELVAAISYSSTRTYYADSVKGRFRISRDNAKNTVYLQMNSLKPEDTAVYYCAVETWWDYDYWGQGTQVTVSS | high polyreactivity |
| QVQLVESGGGLVQAGGSLRLSCAASGIIFYYNGMGWYRQAPGKERELVAAISGDGSTNYADSVKGRFTISRDNAKNTVYLQMNSLKPEDTAVYYCNADDIFRPRDDLYDYWGQGTQVTVSS | low polyreactivity |
| QVQLVESGGGLVQAGGSLRLSCAASGNTFFLNAMGWYRQAPGKERELVAAITSSGGSTYYADSVKGRFTISRDNAKNTVYLQMNSLKPEDTAVYYCATDRSYPPRSLNRRGPYEYWGQGTQVTVSS | low polyreactivity |
| QVQLVESGGGLVQAGGSLRLSCAASGSTFTKYSMGWYRQAPGKERELVAAITGSGGRTYYADSEKGRFTISRDNAKNTVYLQMNSLKPEDTAVYYCAAEKAAGWYSGYDYWGQGTQVTVSS | high polyreactivity |
| QVQLVESGGGLVQAGGSLRLSSDASGFIIANNALGWYRQAPVKERELVAAISRSGGRTYYADSVKGRFTISRDNGKKTVYLQMNSLKTEDTAVYYCVADRTDTSNYWGQGTQVTVSS | high polyreactivity |
| QFQLVESGGGLDQAGGSLRLSCAASGITFGNYAMGWYRQAPGKERELVAAITGSGGRTNYADSVKGRFTISRDNAKNTVYLQMNSLKPEDTAVYYCNRRQYGRKKQYDYWGQGTQVTVSS | high polyreactivity |
| QVQLVESGGGLVQAGGSLRLSCAASGSIFARYVMGWYRQAPGKERELVAAISRGGRTKYADSVKGRFTISRDNAKNTVYLQMNSLKPEDTAVYYCAAEPFNGRTDLDYWGQGTQVTVSS | high polyreactivity |
| QVQLVESCGGLVQAGGSLRLSCAASGRIFLVYAMGWYRQAPGKERELVAAISWSTGSTYYADSVKGRFTISRDNAKNTVYLQMNSLKPEDTAVYYCAAEPELDEFEHDYWGQGTQVTVSS | low polyreactivity |
| QVQLLESGGGLVQAGGTLRLSCAASGRISWYNAMGWYRQAPGKERELVAAIRGGGSTHYADSVKGRFTISRDNAKNTVYLQMNSLKPEDTAVYYCAAYLYYPFYWWRDYWGQGTQVTVSS | high polyreactivity |
| QVQLVESGGGLVQAGGSLRLSCAASGGTFGYNAMGWYRQAPGKERELVAAITGGGRTYYADSVKGRFTISRDNAKNTVYLQMNSLKPEDTAVYYCNADYAYYSYDYWGQGTQVTVSS | low polyreactivity |
| QVQLVESGGGLVQAGGSLRLSCAASGSIFVGYDMGWYRQAPGKERELVASINGGDSTNYADSVKGRFTISRDNAKNTVYLQMNSLKPEDTAVYYCAKDVTYTDEYDYWGQGTQVTVSS | low polyreactivity |
| QVQLVESGGGLVQAGGTLRLSCAASGFIFTRYAMGWYSQAPGKERELVAAIKLSGTSTYYADSVKGRFTISRDNAKYTVYLQMNSLKPEDSAVYYCAATSSYIYPYGYWGQGTQVTVSS | high polyreactivity |
| QVQLVESGGGLVQAGGSLRLSCAASGFTLKYYAMGWYRQAPGKERELVAAISSGDSTNYADSVKGRFTISRDNAKNTVYLQMNSLKPEDTAVYYCNTRYPSSSYYYWGQGTQVTVSS | low polyreactivity |
| QVQLVESGGGLVQAGGSLRLSCAASGRIFQRNAMGWYRQAPGKEREFVAAITKSGGGTYADSVKGRFTISRDNAKNTVYLQMISLKPEDTAVYYCNVVPVWRPYSLINWQKHFGYWGQGTQVTVSS | high polyreactivity |
| QVQLVESGGGLVQAGGSLRLSCAASGSIISYNAMGWYRQAPGKERELVAGIDLGDGTTYYADSVKGRFTISRDNAKNTVYLQMNSLKPDDTAVYYCNADIQIRPYGYAGTSTDEGLGYWGQGTQVTVSS | low polyreactivity |

Reference: the nanobody polyreactivity screen of Harvey et al. (2022)
